Data published in patent publication US20240368275A1 (ELPIS BIOPHARMACEUTICALS, published 2024).

T1: human Nectin4-HIS tagged recombinant protein (human, UniProt Q96NY8 32-349)
T1 construct: also called hNectin4-HIS; Nectin4 HIS tagged protein; not shown: HIS tag
T1 sequence (looked up): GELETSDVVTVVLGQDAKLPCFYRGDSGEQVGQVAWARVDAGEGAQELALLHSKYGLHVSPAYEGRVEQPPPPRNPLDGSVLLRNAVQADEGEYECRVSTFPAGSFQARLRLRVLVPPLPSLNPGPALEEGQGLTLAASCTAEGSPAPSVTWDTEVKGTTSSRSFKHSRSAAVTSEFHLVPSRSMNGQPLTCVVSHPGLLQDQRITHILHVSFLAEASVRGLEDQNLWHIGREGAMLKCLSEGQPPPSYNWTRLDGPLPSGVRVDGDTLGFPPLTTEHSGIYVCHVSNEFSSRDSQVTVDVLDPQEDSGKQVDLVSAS

T2: full-length human Nectin4 with C-terminal flag and Myc tags on CHO cells (human, UniProt Q96NY8 32-510)
T2 sequence (looked up): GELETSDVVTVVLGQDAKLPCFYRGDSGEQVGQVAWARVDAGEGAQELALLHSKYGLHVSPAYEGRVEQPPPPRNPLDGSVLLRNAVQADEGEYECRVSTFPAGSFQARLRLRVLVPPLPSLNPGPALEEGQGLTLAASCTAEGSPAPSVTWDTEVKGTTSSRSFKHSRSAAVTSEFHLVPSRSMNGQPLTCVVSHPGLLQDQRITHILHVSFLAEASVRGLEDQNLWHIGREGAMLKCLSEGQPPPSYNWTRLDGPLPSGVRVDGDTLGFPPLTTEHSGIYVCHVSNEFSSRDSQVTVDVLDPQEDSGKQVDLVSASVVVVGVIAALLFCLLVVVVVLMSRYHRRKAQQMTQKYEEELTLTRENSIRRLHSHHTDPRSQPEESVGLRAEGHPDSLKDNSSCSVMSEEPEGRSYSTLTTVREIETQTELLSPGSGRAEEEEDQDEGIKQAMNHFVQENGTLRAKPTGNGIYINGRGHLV

T3: mouse nectin4 protein (mouse, UniProt Q8R007 31-347, limits assumed)
T3 sequence (looked up): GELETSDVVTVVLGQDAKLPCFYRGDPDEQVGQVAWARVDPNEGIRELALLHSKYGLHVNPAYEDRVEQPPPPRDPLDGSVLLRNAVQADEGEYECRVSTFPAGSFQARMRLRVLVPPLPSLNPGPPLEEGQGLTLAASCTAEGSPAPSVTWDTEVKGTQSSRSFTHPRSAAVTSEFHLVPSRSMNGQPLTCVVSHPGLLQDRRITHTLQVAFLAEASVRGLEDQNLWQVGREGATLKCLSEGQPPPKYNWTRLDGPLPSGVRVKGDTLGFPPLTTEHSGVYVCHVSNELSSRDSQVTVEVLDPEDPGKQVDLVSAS


How the values were obtained:
[1] = biological target: T1, human Nectin4-HIS tagged recombinant …; assay: SPR Biacore T200, IgG captured on Protein A chip, hNectin4-HIS injected
Description: Kinetic analysis of anti-Nectin4 IgG has been assessed by the SPR technology with Biacore T200. The assay was run with Biacore T200 control software version 2.0. For each cycle, 1 ug/mL of anti-hNectin4-IgG was captured for 60 seconds at flow rate of 10 ul/min on flow cell 2 in 1×HBSP buffer on Protein A sensor chip. 2-fold serial hNectin4-HIS tagged protein was injected onto both reference flow cell 1 and anti-Nectin4 IgG captured flow cell 2 for 150 seconds at flow rate of 30 ul/mins followed by wash for 300 seconds. The flow cells were then regenerated with Glycine pH2 for 60 seconds at flow rate of 30 ul/mins. 8 concentration points from 100-0 nM was assayed per anti-Nectin4 IgG in a 96 well plate. The kinetics of Anti-Nectin4 IgG binding to Nectin4 protein was analyzed with Biacore T200 evaluation software version 3.0. The specific binding response unit was derived from subtraction of binding to reference flow cell 1 from antibody captured flow cell 2.

[2] = biological target: T2, full-length human Nectin4 with …; assay: cell-based or functional assay
mouse nectin4 protein = biological target: T3, mouse nectin4 protein; assay: ELISA, coated mouse nectin4, IgG titrated, anti-hFc HRP
[3] = biological target: T1, human Nectin4-HIS tagged recombinant …; assay: ELISA, coated human Nectin4-HIS, IgG titrated, anti-hFc HRP
Description: An ELISA assay was developed to determine the EC₅₀ of exemplary anti-Nectin4 IgG antibodies. Briefly, 384 well plate was immobilized with human Nectin4-HIS tagged recombinant protein at final concentration of 2 ug/mL in 1×PBS in total volume of 25 uL per well. The plate was incubated overnight at 4° C. followed by blocking with 80 uL of superblock per well for 1 hour. Titration of purified anti-Nectin4 IgG starting at 200 nM 2-fold serial dilution, 25 uL was added to human Nectin4 immobilized wells and incubated for 1 hour with shaking. The Nectin4 binding was detected by adding 25 uL of anti-hFc HRP diluted at 1:5000 in 1×PBST. In between each step, the plate was washed 3 times with 1×PBST in a plate washer. The plate was then developed with 20 ul of TMB substrate for 5 mins and stopped by adding 20 ul of 2N sulfuric acid. The plate was read at OD450 nm Biotek plate reader and then plotted in Prism 8.1 software.

[4] = biological target: T2, full-length human Nectin4 with …; assay: flow cytometry, IgG on Nectin4/CHO cells, anti-hFc Alexa fluor 647
Description: 200 nM of purified anti-Nectin4 IgG antibodies were diluted in full medium and incubated with Nectin4/CHO and CHO cells in 96 wells plate on ice for 1 hour. Cells were spun down at 1200 rpm for 5 minutes at 4° C. to remove primary antibodies. Cells were then washed once with 200 uL of full medium per well. Samples were detected with anti-hFc Alexa fluor 647 by adding 100 uL of diluted secondary antibody and incubated at 4° C. for 30 minutes in the dark. Samples were spun down at 1200 rpm for 5 minutes at 4° C. and washed twice with 200 uL of 1×PBS per well. Reconstituted samples in 200 uL of 1×PBS and read on Attune NxT cytometer. Analysis was done by Attune NxT software plotting the overlay histogram of […] proteins binding onto both negative and target cell lines.

monkey nectin4 protein = monkey nectin4 protein (monkey); assay: ELISA, coated monkey nectin4, IgG titrated, anti-hFc HRP
CD3 on Jurkat cells [5] = biological target: T4, CD3 on Jurkat cells (UniProt P07766 23-207, limits assumed); assay: cell-based or functional assay
CD3 on Jurkat cells [6] = biological target: T4, CD3 on Jurkat cells; assay: flow cytometry on Jurkat cells
Description: Jurkat cells were plated at 100,000 cells/well in a 96-well plate with 50 μL of full media. Anti-Nectin4/CD3 antibodies were 3-fold serial titrated from 20 nM. 50 μL was added to the cells and incubated for 1 hours at room temperature with shaking. Samples were washed one time with flow buffer. […] Samples were washed once with flow buffer. Samples were stained with 100 uL Zombie Fixable Viability Dyes at 1:800 dilution per well and incubated in dark at room temperature for 30 mins. Samples were spun down at 1300 rpm for 5 minutes and washed once with 200 uL flow buffer. Reconstituted samples in 200 uL of flow buffer and read on Attune NxT cytometer. EC50 values for CD3 binding were calculated using Prism 8.1 software.
Similar methods of above mentioned were used to measure the binding activities of anti-Nectin4/CD3/IL-2 complexes to CHO/Nectin4 and Jurkat cells, respectively.

[7] = biological target: T1, human Nectin4-HIS tagged recombinant …; assay: ELISA, coated human Nectin4-HIS, complex titrated, anti-hFc HRP
Description: ELISA was performed to determine the EC₅₀ of anti-Nectin4/CD3/IL2 protein complexes. Briefly, 384 well plate was immobilized with human Nectin4-HIS tagged recombinant protein at final concentration of 2 ug/mL in 1×PBS in total volume of 25 uL per well. The plate was incubated overnight at 4° C. followed by blocking with 80 uL of superblock per well for 1 hour. […] The Nectin4 binding was detected by adding 25 uL of anti-hFc HRP diluted at 1:10000 in 1×PBST. In between each step, the plate was washed 3 times with […] in a plate washer. The plate was then developed with 20 ul of TMB substrate for 5 mins and stopped by adding 20 ul of 2N sulfuric acid. The plate was read at OD450 nm Biotek plate reader and then plotted in Prism 8.1 software. Similar SPR methods were applied to measure the binding of the protein complexes to Nectin4, CD3E and IL2 receptors.

T4 sequence (P07766 23-207 limits assumed): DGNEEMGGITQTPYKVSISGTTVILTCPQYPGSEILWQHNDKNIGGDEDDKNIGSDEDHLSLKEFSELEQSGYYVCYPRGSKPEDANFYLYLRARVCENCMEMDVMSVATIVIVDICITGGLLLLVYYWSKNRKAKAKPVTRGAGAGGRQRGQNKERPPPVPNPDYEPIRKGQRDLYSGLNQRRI

| Kd [1] | ADCC Bioreporter assay EC50 [2] | EC50 (mouse nectin4 protein) | EC50 [3] | EC50 [4] | EC50 (monkey nectin4 protein) | Jurkat Cell Activation Activity, NFAT reporter EC50 (CD3 on Jurkat cells [5]) | EC50 (CD3 on Jurkat cells [6]) | EC50 [7] | Binder |
| --- | --- | --- | --- | --- | --- | --- | --- | --- | --- |
| 11 nM | 1.43 nM | 0.037 nM | 0.035 nM | 0.017 nM | 0.043 nM | – | – | – | 2020EP034-E01 IgG (EP296/EP286) (antibody, V domains shown, Human IgG1) VH: not shown VL: DVVMTQSPLSLPVTPGEPASMSCRSSESLLHRNGFNYLDWYVQRPGQSPKLLIYMGSYRASGVPDRFSGRGSGTDFALKISRVEAEDVGVYYCMQALQSPPLYTFGPGTKLEIKR |
| – | – | – | – | – | – | 0.009 nM | 1.65 nM | 0.016 nM | EP369/371/289 anti-Nectin4/CD3/IL2 protein complex (bispecific antibody, Anti-CD3 sp34 scFv-Fc knob (EP369), B09 heavy chain hole with wild-type IL2 at the C-terminus (EP371), light chain EP289; also called EP369/EP371/EP289) not shown heavy: not shown light: QAVVTQPPSVSVAPGKTATITCGGNNIGSKGVHWYQQKPGQAPVLVIYYDTDRPSGIPERLSGSNSGNTATLTISRVEAGDEADYYCQVWDSSSDHPVFGGGTKLTVLGQPKANPTVTLFPPSSEELQANKATLVCLISDFYPGAVTVAWKADGSPVKAGVETTKPSKQSNNKYAASSYLSLTPEQWKSHRSYSCQVTHEGSTVEKTVAPTECS |
| – | – | – | – | – | – | 0.044 nM | 1.04 nM | 0.042 nM | EP369/379/289 anti-Nectin4/CD3/IL2 protein complex (bispecific antibody, Anti-CD3 sp34 scFv-Fc knob (EP369), B09 heavy chain hole with K35L R38D F42R IL2 at the C-terminus (EP379), light chain EP289; also called EP369/EP379/EP289) not shown heavy: EVQLVQSGAEVKKPGASVKVSCKASGYTFTGYYMHWVRQAPGQGLEWMGRINPNSGGTNYAQKFQGRVTMTRDTSISTAYMELSGLRSDDTAVYFCARVTYNIGWYIDYWGQGTLVTVSSASTKGPSVFPLAPSSKSTSGGTAALGCLVKDYFPEPVTVSWNSGALTSGVHTFPAVLQSSGLYSLSSVVTVPSSSLGTQTYICNVNHKPSNTKVDKKVEPKSCDKTHTCPPCPAPEAAGGPSVFLFPPKPKDTLMISRTPEVTCVVVDVSHEDPEVKFNWYVDGVEVHNAKTKPREEQYNSTYRVVSVLTVLHQDWLNGKEYKCKVSNKALGAPIEKTISKAKGQPREPQVCTLPPSRDELTKNQVSLSCAVKGFYPSDIAVEWESNGQPENNYKTTPPVLDSDGSFKLVSKLTVDKSRWQQGNVFSCSVMHEALHNHYTQKSLSLSPGKGGGGSGGGGSGGGGSGGGGSAPASSSTKKTQLQLEHLLLDLQMILNGINNYKNPLLTDMLTRKFYMPKKATELKHLQCLEEELKPLEEVLNLAQSKNFHLRPRDLISNINVIVLELKGSETTFMCEYADETATIVEFLNRWITFSQSIISTLT light: QAVVTQPPSVSVAPGKTATITCGGNNIGSKGVHWYQQKPGQAPVLVIYYDTDRPSGIPERLSGSNSGNTATLTISRVEAGDEADYYCQVWDSSSDHPVFGGGTKLTVLGQPKANPTVTLFPPSSEELQANKATLVCLISDFYPGAVTVAWKADGSPVKAGVETTKPSKQSNNKYAASSYLSLTPEQWKSHRSYSCQVTHEGSTVEKTVAPTECS |
